{"source": "patent US20220064329A1", "about": "(Novo Nordisk, published 2022)", "binders": {"B1": {"name": "mAb0842(OA) (antibody, human IgG4 S228P, kappa)", "heavy": "QVQLQESGPGLVKPSQTLSLTCTVSGYSISSDSAWSWIRQPPGKGLEWIGYIQYSGSTNYNPSLKSRVTISRDTSKNQFSLKLSSVTAADTAVYYCARSVNYYGNSFAVGYWGQGTLVTVSSASTKGPSVFPLAPCSRSTSESTAALGCLVKDYFPEPVTVSWNSGALTSGVHTFPAVLQSSGLYSLSSVVTVPSSSLGTKTYTCNVDHKPSNTKVDKRVESKYGPPCPPCPAPEFLGGPSVFLFPPKPKDTLMISRTPEVTCVVVDVSQEDPEVQFNWYVDGVEVHNAKTKPREEQFNSTYRVVSVLTVLHQDWLNGKEYKCKVSNKGLPSSIEKTISKAKGQPREPQVYTLPPSQEEMTKNQVSLSCAVKGFYPSDIAVEWESNGQPENNYKTTPPVLDSDGSFFLVSRLTVDKSRWQEGNVFSCSVMHEALHNHYTQKSLSLSLGK", "light": "EIVLTQSPATLSLSPGERATLSCRASQGISDYLHWYQQKPGEAPRLLIKYTSQPATGIPARFSGSGSGTDFTLTISSLEPEDFAVYYCQNGHSFPLTFGQGTKLEIKRTVAAPSVFIFPPSDEQLKSGTASVVCLLNNFYPREAKVQWKVDNALQSGNSQESVTEQDSKDSTYSLSSTLTLSKADYEKHKVYACEVTHQGLSSPVTKSFNRGEC", "chain": "not shown", "notes": "also called monovalent humanized 11F2 antibody; one-armed anti-FVII(a) antibody"}}, "experiment_in_all_cases": "SPR, ratio of KD to KD of WT", "key": {"FVII(a) WT": {"biological_target": "T1, FVII(a) WT (human, UniProt P08709 61-466)", "T1 construct": "also called wild type human FVII(a)", "T1 sequence": "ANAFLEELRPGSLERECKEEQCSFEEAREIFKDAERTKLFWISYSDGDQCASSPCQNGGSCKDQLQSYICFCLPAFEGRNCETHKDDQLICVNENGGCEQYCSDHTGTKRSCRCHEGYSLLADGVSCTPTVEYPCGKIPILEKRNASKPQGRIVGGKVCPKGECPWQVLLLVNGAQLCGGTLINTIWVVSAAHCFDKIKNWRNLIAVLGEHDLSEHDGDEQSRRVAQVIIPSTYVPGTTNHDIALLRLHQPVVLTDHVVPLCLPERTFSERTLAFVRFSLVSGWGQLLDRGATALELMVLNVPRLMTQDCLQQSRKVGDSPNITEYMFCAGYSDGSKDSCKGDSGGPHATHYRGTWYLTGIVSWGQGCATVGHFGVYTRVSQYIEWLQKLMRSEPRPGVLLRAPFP"}, "FVII(a) variant I186A": {"biological_target": "T2, FVII(a) variant I186A (human, UniProt P08709 61-466)", "T2 construct": "hFVII alanine variant in cell culture supernatant", "T2 sequence": "T1 sequence with I186A"}, "FVII(a) variant V131A": {"biological_target": "T3, FVII(a) variant V131A (human, UniProt P08709 61-466)", "T3 construct": "hFVII alanine variant in cell culture supernatant", "T3 sequence": "T1 sequence with V131A"}}, "note": "Residue numbers refer to the chain shown, from its start.", "data": [{"binder": "B1", "values": [{"measurement": "Fold diff (Variant/WT)", "setting": "FVII(a) WT", "result": 1, "unit": "fold"}, {"measurement": "Fold diff (Variant/WT)", "setting": "FVII(a) variant I186A", "result": 1.3, "unit": "fold"}, {"measurement": "Fold diff (Variant/WT)", "setting": "FVII(a) variant V131A", "result": 17.1, "unit": "fold"}]}]}
